Values of other authors, collected in PMC4485553.

Molecular target: human IgG1, wild type (UniProt P01857)
Test: not stated in this review
Settings: pH 6

KD: 32 nM
Substance: FcRn (neonatal Fc receptor), mouse
